Laboratory results as given in patent US20260078196A1 (TJ BIOPHARMA SHANGHAI, published 2026).
Read-outs that look alike come from different tables or passages of the source. Values belong to the binder of their own block, whether it stands above or below them.

Assays:
human CLDN6 on cells [1] = target: T1, human CLDN6 on cells (human, UniProt P56747 1-220); assay: flow cytometry (GMFI) on OVCAR3 cells
T1 construct: CHO-K1 cells stably expressing human CLDN6, and OVCAR3 / OV90 cells with endogenous CLDN6; also called CHO-K1-CLDN6; CLDN6 on OVCAR3 and OV90 cells
T1 sequence: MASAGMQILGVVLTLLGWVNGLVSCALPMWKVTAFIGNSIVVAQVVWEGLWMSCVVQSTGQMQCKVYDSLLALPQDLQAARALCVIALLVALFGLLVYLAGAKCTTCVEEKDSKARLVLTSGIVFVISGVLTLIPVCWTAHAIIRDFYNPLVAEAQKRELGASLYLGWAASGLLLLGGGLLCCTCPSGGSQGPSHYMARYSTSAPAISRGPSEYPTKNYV

human CLDN6 on cells [2] = target: T1, human CLDN6 on cells; assay: flow cytometry (GMFI) on OV90 cells
human CLDN6 on cells [3] = target: T1, human CLDN6 on cells; assay: flow cytometry (GMFI) on CHO-K1-CLDN6 cells
ROR1 antigen [4] = target: T2, ROR1 antigen (UniProt Q01973 30-406, limits assumed); assay: SPR, binding to ROR1
T2 construct: Soluble antigen of the Octet binning and of the SPR assay

ROR1 on cells [5] = target: T3, ROR1 on cells (UniProt Q01973 30-937); assay: flow cytometry (gMFI) on A549 cells
T3 construct: whole, on cells; also called ROR1 endogenous expressed tumor cell A549; ROR1-positive tumor cell lines

ROR1 antigen [6] = target: T2, ROR1 antigen; assay: SPR on ROR1
ROR1 on cells [7] = target: T3, ROR1 on cells; assay: flow cytometry (gMFI) on MDA-MB-231 cells
ROR1 antigen [8] = target: T2, ROR1 antigen; assay: SPR on ROR1; remark: listed apart in the source
human MUC16 on cells [9] = target: T4, human MUC16 on cells (human, UniProt Q8WXI7 1-14507); assay: flow cytometry (MFI GeoMean) on OVCAR3 cells, nM is the unit of the x axis Log10[Ab] (nM)
T4 construct: whole, on cells; also called huMUC16; MUC16 on OVCAR3 and SNU216 cells

human MUC16 on cells [10] = target: T4, human MUC16 on cells; assay: flow cytometry (GMFI) on OVCAR3 cells; same value as in FIG. 11A, nM is the unit of the x axis
human MUC16 on cells [11] = target: T4, human MUC16 on cells; assay: flow cytometry (GMFI) on OVCAR3 cells, nM is the unit of the x axis Log10[Ab] (nM)
[12] = target: T5, HEK293-MUC16 (13810-14507) (human, UniProt Q8WXI7 13810-14507); assay: flow cytometry (MFI GeoMean) on HEK293-MUC16 (13810-14507) cells, nM is the unit of the x axis Log10[Ab] (nM)
T5 construct: range 13810-14507; also called MUC16 overexpressed HEK293 cells
T5 sequence: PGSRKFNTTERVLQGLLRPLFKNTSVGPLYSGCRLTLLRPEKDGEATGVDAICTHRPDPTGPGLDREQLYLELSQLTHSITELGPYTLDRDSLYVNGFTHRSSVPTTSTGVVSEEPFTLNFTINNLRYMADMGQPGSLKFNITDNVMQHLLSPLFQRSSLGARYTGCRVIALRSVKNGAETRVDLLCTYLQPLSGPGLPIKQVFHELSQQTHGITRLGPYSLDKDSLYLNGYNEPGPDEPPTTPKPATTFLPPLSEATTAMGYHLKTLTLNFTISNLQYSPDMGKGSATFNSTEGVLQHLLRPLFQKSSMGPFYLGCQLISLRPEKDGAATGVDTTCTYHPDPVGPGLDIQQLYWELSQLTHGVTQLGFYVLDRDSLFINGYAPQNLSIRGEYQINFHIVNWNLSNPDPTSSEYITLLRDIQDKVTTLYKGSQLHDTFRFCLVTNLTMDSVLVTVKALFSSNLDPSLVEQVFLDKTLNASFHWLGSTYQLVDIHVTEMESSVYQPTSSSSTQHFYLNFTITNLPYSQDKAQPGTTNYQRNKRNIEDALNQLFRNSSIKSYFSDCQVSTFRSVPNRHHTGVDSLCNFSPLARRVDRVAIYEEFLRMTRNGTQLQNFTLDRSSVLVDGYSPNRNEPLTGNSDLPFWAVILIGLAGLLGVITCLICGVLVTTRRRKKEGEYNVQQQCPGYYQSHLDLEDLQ

huMUC16, AA14198-14507 = target: T6, huMUC16, AA14198-14507; assay: binding ELISA on huMUC16 AA14198-14507
T6 chain: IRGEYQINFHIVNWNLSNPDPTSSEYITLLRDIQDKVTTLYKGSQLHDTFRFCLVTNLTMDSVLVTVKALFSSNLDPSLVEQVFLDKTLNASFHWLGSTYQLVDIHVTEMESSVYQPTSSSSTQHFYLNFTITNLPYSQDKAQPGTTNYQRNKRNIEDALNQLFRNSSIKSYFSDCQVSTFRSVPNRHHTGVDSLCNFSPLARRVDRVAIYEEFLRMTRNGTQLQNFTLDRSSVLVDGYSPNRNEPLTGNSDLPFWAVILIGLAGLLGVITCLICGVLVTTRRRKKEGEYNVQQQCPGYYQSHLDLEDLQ

human MUC16 on cells [13] = target: T4, human MUC16 on cells; assay: flow cytometry (MFI GeoMean) on SNU216 cells, nM is the unit of the x axis Log10[Ab] (nM)
huMUC16, AA13789-14451 = target: T7, huMUC16, AA13789-14451; assay: binding ELISA on huMUC16 AA13789-14451
T7 construct: also called MUC16 Antigen (human MUC16 AA13789-14451)
T7 chain: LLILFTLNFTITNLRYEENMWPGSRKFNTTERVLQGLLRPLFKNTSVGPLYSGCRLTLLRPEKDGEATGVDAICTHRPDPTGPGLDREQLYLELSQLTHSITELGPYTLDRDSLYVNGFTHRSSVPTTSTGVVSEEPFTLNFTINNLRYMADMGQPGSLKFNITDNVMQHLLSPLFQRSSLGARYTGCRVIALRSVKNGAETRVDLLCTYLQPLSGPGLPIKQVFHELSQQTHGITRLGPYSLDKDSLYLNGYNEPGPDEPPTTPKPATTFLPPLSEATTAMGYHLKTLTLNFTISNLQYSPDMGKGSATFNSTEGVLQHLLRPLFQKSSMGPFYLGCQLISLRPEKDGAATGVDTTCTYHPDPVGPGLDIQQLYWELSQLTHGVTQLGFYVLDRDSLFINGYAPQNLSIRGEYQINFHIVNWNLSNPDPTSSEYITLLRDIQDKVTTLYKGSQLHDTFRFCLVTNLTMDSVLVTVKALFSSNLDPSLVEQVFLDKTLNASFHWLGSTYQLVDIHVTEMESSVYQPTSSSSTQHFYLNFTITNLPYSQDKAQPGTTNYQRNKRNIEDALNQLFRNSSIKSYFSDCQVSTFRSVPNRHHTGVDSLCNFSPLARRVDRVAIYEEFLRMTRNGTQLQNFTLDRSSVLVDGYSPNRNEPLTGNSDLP

ROR1 on cells [14] = target: T3, ROR1 on cells; assay: flow cytometry (gMFI) on A549 cells; remark: listed apart in the source
ROR1 antigen [15] = target: T2, ROR1 antigen; assay: SPR on ROR1; remark: listed apart in the source

- EC50 (human CLDN6 on cells [1]): 5.1 nM
- EC50 (human CLDN6 on cells [2]): 1.2 nM
- EC50 (human CLDN6 on cells [3]): 0.452 nM
B1: parental CLDN6-1 antibody (antibody, V domains shown)
VH: QVQLQESGPGLVKPSETLSLTCTVSGYSITSGYYWNWIRQPPGKGLEWMGYISYSGSNNYNPSLKNRVTISRDTSKNQFSLKLSSVTAADTAVYYCARGGYYFDYWGQGTLVTVSS
VL: DIVMTQSPDSLAVSLGERATINCKSSQSLLNTNNQKNYLAWYQQKPGQPPKLLIYFASTRESGVPDRFSGSGSGTDFTLTISSLQAEDVAVYFCQQHYNAPRTFGGGTKVEIK

- EC50 (human MUC16 on cells [9]): 0.274 nM
- EC50 (human MUC16 on cells [10]): 0.257 nM
- EC50 (human MUC16 on cells [11]): 0.257 nM
- EC50 [12]: 0.423 nM
- binding result (huMUC16, AA14198-14507): no binding (tested: 100 nM)
- EC50 (human MUC16 on cells [13]): 0.152 nM
- binding result (huMUC16, AA13789-14451): binds
B4: M16-2 (antibody, human IgG1, kappa, N297A, V domains shown)
VH: EVQLVESGGGLEQPGRSLRLSCTASGFAFGDHTMSWVRQAPGKGLEWVGFIRSRAYGGTTEYAASVKGRFTISRDDSKSIAYLQMDSLKTEDTAVYYCTSGGYDSSLHYYYYYHGMDVWGRGTTVTVSS
VL: not shown
notes: Benchmark anti-MUC16 antibody; also called benchmarker antibody M16-2

- binding result (ROR1 on cells [14]): binds
B5: humanized 8F2 anti-ROR1 mAb (antibody, V domains shown)
VH: QVQLVQSGAEVKKPGASVKVSCKASGYTFTTYVMHWVRQAPGQGLEWMGYINPYNGGIRYNEKFKGRVTMTRDTSTSTVYMELSSLRSEDTAVYYCARRERGVYYGMDEWGQGTLVTVSS
VL: DIVMTQTPLSLSVTPGQPASISCKSSQSLLHSNGKTYLNWYLQKPGQSPQLLIYLVSKLESGVPDRFSGSGSGTDFTLKISRVEAEDVGVYYCLQATYFPYTFGQGTKLEIK
notes: also called h8F2

- EC50 (human MUC16 on cells [10]): 0.192 nM
- EC50 (human MUC16 on cells [11]): 0.192 nM
- binding result (huMUC16, AA13789-14451): binds
B6: M16-1 (antibody, human IgG1, kappa, N297A, V domains shown)
VH: QVQLVESGGGLVKPGGSLRLSCAASGFTFSNYYMSWVRQAPGKGLEWISYISGRGSTIFYADSVKGRITISRDNAKNSLFLQMNSLRAEDTAVYFCVKDRGGYSPYWGQGTLVTVSS
VL: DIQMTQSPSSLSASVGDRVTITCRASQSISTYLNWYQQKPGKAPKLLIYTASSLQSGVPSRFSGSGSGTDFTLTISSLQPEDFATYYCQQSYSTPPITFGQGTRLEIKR
notes: also called benchmarker antibody M16-1

Further lines, the binder ahead of its results:

B2: 4B-BiR1(Humanized) or 4B-hBiR1 (bispecific antibody, human IgG1, kappa)
heavy: not shown
chain: DIVMTQTPLSLSVTPGQPASISCKSSQSLLHSNGKTYLNWYLQKPGQSPQLLIYLVSKLESGVPDRFSGSGSGTDFTLKISRVEAEDVGVYYCLQATYFPYTFGQGTKLEIKGGGGSGGGGSGGGGSQVQLVQSGAEVKKPGASVKVSCKASGYTFTTYVMHWVRQAPGQGLEWMGYINPYNGGIRYNEKFKGRVTMTRDTSTSTVYMELSSLRSEDTAVYYCARRERGVYYGMDEWGQGTLVTVSSAAEPKSSDKTHTCPPCPAPELLGGPSVFLFPPKPKDTLMISRTPEVTCVVVDVSHEDPEVKFNWYVDGVEVHNAKTKPREEQYNSTYRVVSVLTVLHQDWLNGKEYKCKVSNKALPAPIEKTISKAKGQPREPQVCTLPPSREEMTKNQVSLSCAVKGFYPSDIAVEWESNGQPENNYKTTPPVLDSDGSFFLVSKLTVDKSRWQQGNVFSCSVMHEALHNHYTQKSLSLSPGKGGGGSGGGGSGGGGSQVQLQESGGGLVQPGGSLRLSCAASGYTYSSNCMGWFRQAPGKGLEGVAVICTGGGSPSYADSVKGRFTISRDNAKNTLYLQMNSLRAEDTAVYYCAADLLRAGTPLSSYEFNYWGQGTLVTVSS
light: DIQMTQSPSSLSASVGDRVTITCRASQDIYSYLSWFQQKPGKAPKTLIYRANRLVDAVPSRFSGSGSGQDYTLTISSLQPEDFATYYCLQYDEFPYTFGQGTKLEIKRTVAAPSVFIFPPSDEQLKSGTASVVCLLNNFYPREAKVQWKVDNALQSGNSQESVTEQDSKDSTYSLSSTLTLSKADYEKHKVYACEVTHQGLSSPVTKSFNRGEC
notes: Humanized bi-paratopic ROR1 x 4-1BB antibody: h3C5 IgG half with VHH plus h8F2 scFv-Fc-VHH; also called 4-hiBiR1
- Kd (ROR1 antigen [4]): 12.1 nM
- EC50 (read off the curve) (ROR1 on cells [5]): ~0.1 nM
- koff (ROR1 antigen [6]): 0.00114 s⁻¹
- kon (ROR1 antigen [6]): 93600 M⁻¹ s⁻¹
- EC50 (read off the curve) (ROR1 on cells [7]): ~0.06 nM

B3: 4B-3C5 (humanized) or 4B-h3C5 (bispecific antibody, human IgG1, kappa)
heavy: not shown
light: DIQMTQSPSSLSASVGDRVTITCRASQDIYSYLSWFQQKPGKAPKTLIYRANRLVDAVPSRFSGSGSGQDYTLTISSLQPEDFATYYCLQYDEFPYTFGQGTKLEIKRTVAAPSVFIFPPSDEQLKSGTASVVCLLNNFYPREAKVQWKVDNALQSGNSQESVTEQDSKDSTYSLSSTLTLSKADYEKHKVYACEVTHQGLSSPVTKSFNRGEC
notes: Humanized ROR1 x 4-1BB BsAb; also called humanized 3C5 IgG x 4-1BB VHH
- Kd (ROR1 antigen [4]): 79.3 nM
- koff (ROR1 antigen [8]): 0.00821 s⁻¹
- kon (ROR1 antigen [8]): 104000 M⁻¹ s⁻¹
- EC50 (read off the curve) (ROR1 on cells [5]): ~0.03 nM
- EC50 (read off the curve) (ROR1 on cells [7]): ~0.03 nM

B7: 4B-8F2 (humanized) or 4B-h8F2 (bispecific antibody, human IgG1, kappa)
heavy: not shown
light: DIVMTQTPLSLSVTPGQPASISCKSSQSLLHSNGKTYLNWYLQKPGQSPQLLIYLVSKLESGVPDRFSGSGSGTDFTLKISRVEAEDVGVYYCLQATYFPYTFGQGTKLEIKRTVAAPSVFIFPPSDEQLKSGTASVVCLLNNFYPREAKVQWKVDNALQSGNSQESVTEQDSKDSTYSLSSTLTLSKADYEKHKVYACEVTHQGLSSPVTKSFNRGEC
notes: Humanized ROR1 x 4-1BB BsAb
- Kd (ROR1 antigen [4]): 237 nM
- EC50 (read off the curve) (ROR1 on cells [5]): ~0.03 nM
- EC50 (read off the curve) (ROR1 on cells [7]): ~0.01 nM
- koff (ROR1 antigen [15]): 0.0592 s⁻¹
- kon (ROR1 antigen [15]): 250000 M⁻¹ s⁻¹
